From the RNAGym collection of RNA variant scans (doi:10.1101/gr.219683.116)

B1: mRNA-splicing (parent)
chain: AGUUGCUGCUGGGAGCUCCAGCACAGUGAAAUGGACAGAAGGGCAGAGCAA

Variants of: B1
Assay: exon inclusion enrichment index; higher = more inclusion; WT1 exon 5 minigene, HEK293
For C6A U7A C9A U10A G43A, the “exon inclusion enrichment index” value was 2.02. For C6A U7C C9A U10C C19A A20U, the “exon inclusion enrichment index” value was 2.07. With C6A U7C C9A U10C C19A A20G the “exon inclusion enrichment index” value was 0.968. For C6A U7C C9A U10C C19A A20C, the “exon inclusion enrichment index” value was 2.73. With C6A U7A G8U C9A U10A the “exon inclusion enrichment index” value was 0.117. In the case of C6A U7A G8U C9A U10C, the “exon inclusion enrichment index” value is reported as 1.38. With C6A U7C C9A U10C A20C G21U the “exon inclusion enrichment index” value was 2.72. In the case of C6A U7C C9A U10C A20C G21C, the “exon inclusion enrichment index” value is reported as 2.31. For C6A U7C C9A U10C A20C G21A, the “exon inclusion enrichment index” value was 2.38. For C6A U7C C9A, the “exon inclusion enrichment index” value was 1.99. With C6A U7A G8U U10A the “exon inclusion enrichment index” value was 0.0805. In the case of C6A U7C C9A U10C A25U G26A, the “exon inclusion enrichment index” value is reported as 3.54. For C6A U7C C9A U10C A25U G26C, the “exon inclusion enrichment index” value was 3.26. For C6A U7C C9A U10C A25U G26U, the “exon inclusion enrichment index” value was 2.49. For C6A U7C C9A U10C A29U A30U, the “exon inclusion enrichment index” value was 1.98. For C6A U7C C9A U10C A29U A30G, the “exon inclusion enrichment index” value was 3.55. For C6A U7C C9A U10C A29U A30C, the “exon inclusion enrichment index” value was 2.97. In the case of C6A U7A C9A U10A U32G G33A, the “exon inclusion enrichment index” value is reported as 0.11. In the case of C6A U7A C9A U10A U32G G33C, the “exon inclusion enrichment index” value is reported as 0.75. With C6A U7A C9A U10A U32G G33U the “exon inclusion enrichment index” value was 0.178. In the case of C6A U7C C9A U10C A20U G21U, the “exon inclusion enrichment index” value is reported as 2.83. In the case of C6A U7C C9A U10C A20U G21C, the “exon inclusion enrichment index” value is reported as 3.73. In the case of C6A U7C C9A U10C A20U G21A, the “exon inclusion enrichment index” value is reported as 2.77. For C6A U7A C9A U10A U27A, the “exon inclusion enrichment index” value was 0.945. For C6A U7A C9A U10A U27C, the “exon inclusion enrichment index” value was 1.97. For C6A U7A C9A U10A U27G, the “exon inclusion enrichment index” value was 0.189. For C6A U7A C9A U10A G42U G43A, the “exon inclusion enrichment index” value was 1.42. With C6A U7A C9A U10A G42U G43C the “exon inclusion enrichment index” value was 0.532. With C6A U7A C9A U10A G42U G43U the “exon inclusion enrichment index” value was 1.61. In the case of C6A U7C C9A U10C A45G, the “exon inclusion enrichment index” value is reported as 4.95. In the case of C6A U7C C9A U10C A45U, the “exon inclusion enrichment index” value is reported as 3.86. For C6A U7C C9A U10C A45C, the “exon inclusion enrichment index” value was 3.19. With C6A U7A C9A U10G G11U the “exon inclusion enrichment index” value was 1.14. With C6A U7A C9A U10G G11A the “exon inclusion enrichment index” value was 1.24. In the case of C6A U7A C9A U10G G11C, the “exon inclusion enrichment index” value is reported as 1.95. For C6A U7C C9A U10C A31U U32G, the “exon inclusion enrichment index” value was 2.15. With C6A U7C C9A U10C A31U U32A the “exon inclusion enrichment index” value was 0.902. With C6A U7C C9A U10C A31U U32C the “exon inclusion enrichment index” value was 3.74. For C6A U7C C9A U10C A23U C24U, the “exon inclusion enrichment index” value was 0.978. With C6A U7C C9A U10C A23U C24G the “exon inclusion enrichment index” value was 3.98. With C6A U7C C9A U10C A23U C24A the “exon inclusion enrichment index” value was 1.89. In the case of C6A U7A C9G U10G, the “exon inclusion enrichment index” value is reported as 0.0939. For C6A U7A C9G U10C, the “exon inclusion enrichment index” value was 1.05. In the case of C6A U7A C9G U10A, the “exon inclusion enrichment index” value is reported as 0.286. In the case of C6A U7C C9A U10C A47G, the “exon inclusion enrichment index” value is reported as 0.844. With C6A U7C C9A U10C A47C the “exon inclusion enrichment index” value was 3.27. With C6A U7C C9A U10C A47U the “exon inclusion enrichment index” value was 2.86. In the case of C6A U7C C9A U10C A37G, the “exon inclusion enrichment index” value is reported as 4.15. With C6A U7C C9A U10C A37U the “exon inclusion enrichment index” value was 2.49. For C6A U7C C9A U10C A37C, the “exon inclusion enrichment index” value was 3.93. For C6A U7C C9A U10C A30U A31C, the “exon inclusion enrichment index” value was 2.83. For C6A U7C C9A U10C A30U A31G, the “exon inclusion enrichment index” value was 3.73. In the case of C6A U7C C9A U10C A30U A31U, the “exon inclusion enrichment index” value is reported as 2.77. With C6A U7C C9A U10C A35C C36G the “exon inclusion enrichment index” value was 2.56. In the case of C6A U7C C9A U10C A35C C36A, the “exon inclusion enrichment index” value is reported as 2.28. For C6A U7C C9A U10C A35C C36U, the “exon inclusion enrichment index” value was 0.742. In the case of C6A U7C C9A U10C A20G G21C, the “exon inclusion enrichment index” value is reported as 3.34. For C6A U7C C9A U10C A20G G21U, the “exon inclusion enrichment index” value was 1.35. In the case of C6A U7C C9A U10C A20G G21A, the “exon inclusion enrichment index” value is reported as 3.72. In the case of C6A U7A C9U, the “exon inclusion enrichment index” value is reported as 0.615. With C6A U7A C9G the “exon inclusion enrichment index” value was 0.28. With C6A U7A C9A U10A G38C A39U the “exon inclusion enrichment index” value was 0.0576. With C6A U7A C9A U10A G38C A39G the “exon inclusion enrichment index” value was 0.734. For C6A U7A C9A U10A G38C A39C, the “exon inclusion enrichment index” value was 0.874. For C6A U7C C9A U10C A30G A31C, the “exon inclusion enrichment index” value was 0.677. For C6A U7C C9A U10C A30G A31U, the “exon inclusion enrichment index” value was 1.6. In the case of C6A U7C C9A U10C A30G A31G, the “exon inclusion enrichment index” value is reported as 1.7. For C6A U7A C9A U10A G38U A39G, the “exon inclusion enrichment index” value was 0.321. For C6A U7A C9A U10A G38U A39C, the “exon inclusion enrichment index” value was 0.692. In the case of C6A U7A C9A U10A G38U A39U, the “exon inclusion enrichment index” value is reported as 0.0139. With C6A U7A C9A U10A U32C the “exon inclusion enrichment index” value was 1.37. In the case of C6A U7A C9A U10A U32A, the “exon inclusion enrichment index” value is reported as 0.442. In the case of C6A U7A C9A U10A U32G, the “exon inclusion enrichment index” value is reported as 0.041. For C6A U7C C9A U10C, the “exon inclusion enrichment index” value was 3.63. For C6A U7C C9A U10A, the “exon inclusion enrichment index” value was 1.36. With C6A U7A G8C U10A the “exon inclusion enrichment index” value was 0.371. With C6A U7A C9A U10A U17G C18G the “exon inclusion enrichment index” value was 0.391. With C6A U7A C9A U10A U17G C18A the “exon inclusion enrichment index” value was 0.619. In the case of C6A U7A C9A U10A U17G C18U, the “exon inclusion enrichment index” value is reported as 0.46. For C6A U7A C9A U10A G46U A47C, the “exon inclusion enrichment index” value was 1.79. For C6A U7A C9A U10A G46U A47G, the “exon inclusion enrichment index” value was 0.587. For C6A U7A C9A U10A G46U A47U, the “exon inclusion enrichment index” value was 1.03. For C6A U7A G8C C9A U10C, the “exon inclusion enrichment index” value was 1.95. With C6A U7A G8C C9A U10A the “exon inclusion enrichment index” value was 0.471.
